# According to patent US20240277864A1 (SORRISO PHARMACEUTICALS, published 2024):
# T1: Membrane-bound IL-6 receptor on TF1 cells (human, UniProt P08887 20-468)
# T1 sequence (looked up): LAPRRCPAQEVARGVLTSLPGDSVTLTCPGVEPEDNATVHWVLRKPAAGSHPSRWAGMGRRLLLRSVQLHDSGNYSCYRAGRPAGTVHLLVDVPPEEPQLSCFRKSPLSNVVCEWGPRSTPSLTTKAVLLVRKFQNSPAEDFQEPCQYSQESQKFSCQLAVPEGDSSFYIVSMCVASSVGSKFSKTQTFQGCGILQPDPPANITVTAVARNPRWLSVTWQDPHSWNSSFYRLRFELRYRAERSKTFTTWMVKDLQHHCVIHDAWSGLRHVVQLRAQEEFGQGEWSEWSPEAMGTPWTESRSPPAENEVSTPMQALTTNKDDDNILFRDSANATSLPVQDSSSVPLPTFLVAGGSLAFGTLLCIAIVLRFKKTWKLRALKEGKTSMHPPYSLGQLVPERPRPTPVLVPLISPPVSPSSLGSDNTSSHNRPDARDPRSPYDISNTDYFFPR
# T2: Recombinant soluble human IL-6R (human, UniProt P08887 20-365)
# T2 sequence (looked up): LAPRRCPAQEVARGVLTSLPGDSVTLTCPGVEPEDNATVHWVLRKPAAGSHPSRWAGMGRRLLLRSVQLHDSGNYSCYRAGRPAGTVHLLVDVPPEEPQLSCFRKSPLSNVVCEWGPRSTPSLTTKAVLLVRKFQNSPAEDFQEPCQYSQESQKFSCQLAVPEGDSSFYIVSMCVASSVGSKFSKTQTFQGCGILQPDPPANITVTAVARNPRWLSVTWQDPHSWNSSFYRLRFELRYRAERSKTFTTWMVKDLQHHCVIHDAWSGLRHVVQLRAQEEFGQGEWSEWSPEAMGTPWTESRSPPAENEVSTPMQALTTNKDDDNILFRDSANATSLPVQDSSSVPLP
# B1: ID-123V (VHH)
# VHH: EVQLVESGGGLVQAGGSTRLTCKASGSISNINSINVMAWYRQAPGKGRELVAIIGKGGGTNYADFVKGRFTISRDAAKNTVYLQMNSLRPEDTAVYYCYADYEDHDSPHNASWGQGTQVTVSS
# notes: equivalent to ID-142V except N-terminal Glu (lacks the E1D mutation) and tag; not shown: C-terminal Flag, His tag
# B2: ID-142V (VHH)
# VHH: DVQLVESGGGLVQAGGSTRLTCKASGSISNINSINVMAWYRQAPGKGRELVAIIGKGGGTNYADFVKGRFTISRDAAKNTVYLQMNSLRPEDTAVYYCYADYEDHDSPHNASWGQGTQVTVSS
# B3: Tocilizumab (antibody, V domains shown)
# VH: QVQLQESGPGLVRPSQTLSLTCTVSGYSITSDHAWSWVRQPPGRGLEWIGYISYSGITTYNPSLKSRVTMLRDTSKNQFSLRLSSVTAADTAVYYCARSLARTTAMDYWGQGSLVTVSS
# VL: DIQMTQSPSSLSASVGDRVTITCRASQDISSYLNWYQQKPGKAPKLLIYYTSRLHSGVPSRFSGSGSGTDFTFTISSLQPEDIATYYCQQGNTLPYTFGQGTKVEIKR
# B4: 20A11 (VHH)
# VHH: EVQLVESGGGLVQPGGSLRLSCAASGSVFKINVMAWYRQAPGKGRELVAGIISGGSTSYADSVKGRFTISRDNAKNTLYLQMNSLRPEDTAVYYCAFITTESDYDLGRRYWGQGTLVTVSS
# B5: ID-38F (VHH)
# VHH: DVQLVESGGGLVQPGGSLKLSCAASGFDFSSHWMYWVRQAPGKELEWLSEINTNGLITHYGDSVKGRFTVSRNNAANKMYLELTRLEPEDTALYYCARNQHGLNKGQGTQVTVSS
# notes: also called ID38F (S. cerevisiae-produced); anti-TNF ICVD
# Experiments:
# [1] = biological target: T1, Membrane-bound IL-6 receptor on TF1 …; assay: cell-based or functional assay
# [2] = biological target: T2, Recombinant soluble human IL-6R; assay: cell-based or functional assay
# [3] = biological target: T2, Recombinant soluble human IL-6R; assay: Biacore (SPR), ICVD fixed to the sensor plate, soluble human IL-6R flowed; ICVD on the chip, soluble human IL-6R flowed
# Source text: The ICVD was fixed to the Biacore sensor plate and soluble human IL-6R was flowed over the plate to detect binding.
# [4] = biological target: T2, Recombinant soluble human IL-6R; assay: cell-based or functional assay; remark: listed apart in the source
# [5] = biological target: T2, Recombinant soluble human IL-6R; assay: gp130 ELISA: inhibition of binding of sIL-6R/IL-6 complex to coated gp130
# [6] = biological target: T2, Recombinant soluble human IL-6R; assay: Biacore (SPR), soluble human IL-6R flowed over the plate
# Human TNF-alpha [7] = biological target: T3, Human TNF-alpha (human, UniProt P01375 77-233); assay: competition ELISA: inhibition of TNF-alpha binding to coated TNFR-2 (Enbrel)
# T3 construct: there it was coupled to the chip via covalently linked DNA in one orientation; also called hTNF-alpha; h-TNF-alpha
# T3 sequence (P01375 77-233 limits assumed): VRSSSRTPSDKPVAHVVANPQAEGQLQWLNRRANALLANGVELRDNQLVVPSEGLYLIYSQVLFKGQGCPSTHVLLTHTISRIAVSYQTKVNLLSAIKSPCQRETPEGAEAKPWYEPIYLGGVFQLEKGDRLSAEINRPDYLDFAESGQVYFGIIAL
# Procedure: An ELISA plate was coated overnight with 1.5 μg/ml TNFR-2 (Enbrel) in PBS overnight at 4° C. The plate was then washed and blocked in 1% BSA for >1 h at RT before being used. […] Finally, the plate was washed again and 100 μl/well of TMB were added. Colour development was stopped by adding 50 μl/well of 0.5M H₂SO₄ and OD450 nm measurements were taken using a BMG Labtek Fluostar Omega plate reader.
# Human TNF-alpha [8] = biological target: T3, Human TNF-alpha; assay: switchSENSE, TNFa immobilised, fluorescence
# Human TNF-alpha [9] = biological target: T3, Human TNF-alpha; assay: cell-based or functional assay
# Human TNF-alpha [10] = biological target: T3, Human TNF-alpha; assay: switchSENSE, ID-38F immobilised, TNF-alpha flowed, fluorescence
Binder,TF-1 cell assay EC50 nM (5 ng/ml IL-6) [1] [nM],M1 cellular assay EC50 [2] [nM],"EC50, nM, M1 cell assay (% inhibition of the IL-6+IL-6R response) [4] [nM]",EC50 [5] [nM],further results
B1,4.5,4.2,2.31,0.498,Kd [3]: 1.1 nM
B2,,,4.05,,
B3,1.12,5.36,4.16,1.83,Kd [6]: 0.39 nM
B4,0.56,,,0.22,
B5,,,,,"EC50 (Human TNF-alpha [7]): 0.383 nM; kon (Human TNF-alpha [8]): 8.1e+06 M⁻¹ s⁻¹; EC50 (nM), L929 assay (neutralisation of TNF-alpha-induced cytotoxicity) (Human TNF-alpha [9]): 0.127 nM; Kd (Human TNF-alpha [10]): 0.0168 nM; koff (Human TNF-alpha [10]): 4.2e-05 s⁻¹; kon (Human TNF-alpha [10]): 2.5e+06 M⁻¹ s⁻¹"
